Reference: patent US11142752B2, “Pullulanase mutant” (Jiangnan University, priority 2018, dated 2021)

Legend:
[1] = test system: pullulanase of Geobacillus stearothermophilus; test: Inhibitory effect of cyclodextrin on pullulanase enzyme activity (DNS method, pullulan substrate); assay type: biochemical
Description: (§1) 2. Measurement of Enzyme Activity of the Pullulanase:
(§2) A 3,5-dinitrosalicylic acid (DNS) method is adopted. The pullulanase catalyzes the hydrolysis of pullulan to produce reducing sugar under certain conditions, 3,5-dinitrosalicylic acid and the reducing sugar are reduced under thermal conditions to produce a brown-red amino complex, the color depth is directly proportional to the amount of the reducing sugar within a certain range, and the measurement can be performed at the wavelength of 540 nm so as to calculate the enzyme activity. Enzyme activity unit definition: the amount of the enzyme that catalyzes the production of the reducing sugar equivalent to 1 μmol of glucose reducing power per minute is defined as one activity unit.
(§3) 3. Measurement of the Enzyme Activity Comprises the Following Steps:
(§4) A. preheating: putting 1 mL of a 1% pullulan solution of which the pH value is 6.0 and 0.1 mL of a buffer solution of which the pH value is 6.0 in a centrifuge tube, and performing thermal insulation for 10 min on a water bath of 40° C.;
(§5) B. reaction: adding 0.1 mL (10 U) of an enzyme solution, performing shaking and mixing uniformly, performing accurate timing for 30 min, adding 1.5 mL of DNS for stopping reaction, performing treatment in a boiling water bath for 10 min, and performing instant cooling; and
(§6) C. measurement: measuring the light absorption value under the condition of 540 nm, and calculating the activity.
(§7) Reduction of the Inhibitory Effect of Enzyme Activity Characterization:
(§8) A. preheating: putting 1 mL of the 1% pullulan solution of which the pH value is 6.0 and 0.1 mL of 10 mM cyclodextrin in the centrifuge tube, and performing thermal insulation for 10 min on the water bath of 40° C.;
(§9) B. reaction: adding 0.1 mL (10 U) of the enzyme solution, performing shaking and mixing uniformly, performing accurate timing for 30 min, adding 1.5 mL of DNS for stopping reaction, performing treatment in the boiling water bath for 10 min, and performing instant cooling; and
(§10) On the basis, the phenylalanine at the position 481 of the Geobacillus stearothermophilus, the phenylalanine at the position 478 of the [Brevibacterium] halotolerans and the phenylalanine at the position 476 of the […] are mutated, obtained mutants and the mutation effects are shown in the table below. The key amino acid site is applicable to the pullulanase from different sources.

[2] = test system: pullulanase of Bacillus halotolerans; test: as above; assay type: biochemical
Description: as §1, §2, §3, §4, §5, §6, §7, §8, §9, §10

Molecule | Reduction rate of specific enzyme activity in existence of α-CD ([1]; inhibitor α-CD) [%] | Reduction rate of specific enzyme activity in existence of β-CD ([1]; inhibitor β-CD) [%] | Reduction rate of specific enzyme activity in existence of γ-CD ([1]; inhibitor γ-CD) [%] | Reduction rate of specific enzyme activity in existence of α-CD ([2]; inhibitor α-CD) [%] | Reduction rate of specific enzyme activity in existence of β-CD ([2]; inhibitor β-CD) [%] | Reduction rate of specific enzyme activity in existence of γ-CD ([2]; inhibitor γ-CD) [%]
Geobacillus stearothermophilus Wild enzyme: wild pullulanase of Geobacillus stearothermophilus (KZE96788.1, SEQ ID NO: 20) (protein, bacterial) MLHISRTFAAYLDEIDQITVIVPKARCLDNMEPFVMTAPSGEDIPLVVQQKEDLGDAVKYVCRFSVPFQIGETHWIRARSGEESDVQIGAVVRTAAFDDQFFYDGKLGVEYAKEQTIFRVWAPTATAVSVKLVHPDHGDVRYVPLVRGERGVWSVAVSGDWERARYMYVACINRVWREAVDPYATAVSVNGEHGVIVDWEKTKLAKPAPPLPPCPSPTDAVIYELSIRDFTSHPDSGAVWKGKYLGLTEEHTRGPNGTVTGLSYLKELGVTHVQLMPFADFAGVDERDPQAAYNWGYNPLHLYAPEGSYATDPHDPYARIVELKQAIRALQENGLRVVMDAVYNHVYDREQSPLENLVPGYYFRYDAYGRPANGTGVGNDIASERRMARRWIVDSVVFWAKEYGINGFRFDLMGVHDIETMKSVRDALDAIDPSILVYGEGWDLPTPLAPEQKATMANAKRLPRLAYFNDRFRDAVKGSTFYLPDRGFALGDSAGREQVKTAIAGSLQAFGGLFCHPLQSINYVECHDNHTFWDKMEAANGHEPEWLRRKRQKLATAIVLLAQGIPFLHSGQEFYRTKGGDENSYRSPDAVNRLDWERKSRYEDDVRYIQGLIAIRRAHGAFRLATEVDVQRHLTFLEPIPPSVIAYWLRDVALYGLWTDIVVIHHNEETGVVIALPDDGEWHVVCDGERSGTVPLRQVRRFLDADGIGTWVLVKTGAAADVENGK | 16.9 | 51.2 | 7.7 | – | – | –
Bacillus halotolerans Wild enzyme: wild pullulanase of Bacillus halotolerans (WP_106020274.1, SEQ ID NO: 26) (protein, bacterial) MVCIQRSFEAYADEMNIITVLIPADQKDTFTPPFQLETDTAEIPLTVSQEWQIEGKYKYVCVAEQPVAFGKTHHVKASGGGKTDLQIGAVVRTDAFDAAFYYDGELGAVYASDYTEFKVWAPAATSAAVKLSHPEKSGYTLQMTRMENGVYAVTVAGDLHGYEYVYRICNNLEWTETVDPYAKAVTVNGEKGVVLRPDQANSAPSFTPFSAPVDAIIYEMHIRDFSIHENSGTKNKGKYAALAETDTKTKNGSSTGLSYLKELGVTHIELLPLNDYAGVDEENPLAAYNWGYNPLHFFAPEGSYSSNPHDPQTRNTEVKQMIHTLHQHGLRVILDVVYNHVYQREHSPFEKTVPGYFFRHDQFGMPSNGTGVGNDIASERRMARKFITDCVMYWLKEYDVDGFRFDLLGILDIETVLHMKEKASEVKSGILLFGEGWDLATPLPPEQKATLANASKMPGVGFFNDSFRDAVKGNTFHIAAAGFALGNGEKTETVMHGIAGSSGWKETAPLVSAPSQSINYVESHDNHTFWDKMSLALPQESESRKRSRQKLASAIILLAQGVPFIHSGQEFFRTKQGVENSYQSSDSINQLDWSRRETFKQDVDYVRRLISLRKAHPAFRLTSSADIQRCLECLALKEHLIVYRLFNLGAIDEWEEIIVIHHASPDSVTWQLPKDKAYRLLCDTDGFRADHGEIKKAVAVNGIGTVILYLARDLTSFA | – | – | – | 17.2 | 35.9 | 6.7
